Measurements taken from IntAct's records for PubMed 31515488.

B1: Transcription factor 12 (Homo sapiens), Q99081-3 (parent)
chain: MNPQQQRMAAIGTDKELSDLLDFSAMFSPPVNSGKTRPTTLGSSQFSGSGIDERGGTTSWGTSGQPSPSYDSSRGFTDSPHYSDHLNDSRLGAHEGLSPTPFMNSNLMGKTSERGSFSLYSRDTGLPGCQSSLLRQDLGLGSPAQLSSSGKPGTAYYSFSATSSRRRPLHDSAALDPLQAKKVRKVPPGLPSSVYAPSPNSDDFNRESPSYPSPKPPTSMFASTFFMQDGTHNSSDLWSSSNGMSQPGFGGILGTSTSHMSQSSSYGNLHSHDRLSYPPHSVSPTDINTSLPPMSSFHRGSTSSSPYVAASHTPPINGSDSILGTRGNAAGSSQTGDALGKALASIYSPDHTSSSFPSNPSTPVGSPSPLTGTSQWPRPGGQAPSSPSYENSLHSLKNRVEQQLHEHLQDAMSFLKDVCEQSRMEDRLDRLDDAIHVLRNHAVGPSTSLPAGHSDIHSLLGPSHNAPIGSLNSNYGGSSLVASSRSASMVGTHREDSVSLNGNHSVLSSTVTTSSTDLNHKTQENYRGGLQSQSGTVVTTEIKTENKEKDENLHEPPSSDDMKSDDESSQKDIKVSSRGRTSSTNEDEDLNPEQKIEREKERRMANNARERLRVRDINEAFKELGRMCQLHLKSEKPQTKLLILHQAVAVILSLEQQVRERNLNPKAACLKRREEEKVSAVSAEPPTTLPGTHPGLSETTNPMGHM
partner: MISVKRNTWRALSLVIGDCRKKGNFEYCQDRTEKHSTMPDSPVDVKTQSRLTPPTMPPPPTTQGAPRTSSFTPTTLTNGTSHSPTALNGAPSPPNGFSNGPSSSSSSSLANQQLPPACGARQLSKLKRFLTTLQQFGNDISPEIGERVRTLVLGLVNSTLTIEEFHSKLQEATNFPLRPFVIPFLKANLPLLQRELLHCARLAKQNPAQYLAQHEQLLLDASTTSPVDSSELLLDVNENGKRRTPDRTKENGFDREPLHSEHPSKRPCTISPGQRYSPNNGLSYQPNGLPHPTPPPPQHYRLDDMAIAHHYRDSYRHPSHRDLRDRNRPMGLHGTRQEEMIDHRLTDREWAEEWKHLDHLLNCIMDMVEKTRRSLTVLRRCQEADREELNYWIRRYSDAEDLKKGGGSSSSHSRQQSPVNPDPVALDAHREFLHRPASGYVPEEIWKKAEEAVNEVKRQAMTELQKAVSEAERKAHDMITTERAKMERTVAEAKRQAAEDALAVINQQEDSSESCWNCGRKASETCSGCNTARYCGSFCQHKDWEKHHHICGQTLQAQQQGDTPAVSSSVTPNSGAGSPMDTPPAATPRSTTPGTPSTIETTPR
B2: Four and a half LIM domains protein 2 (Homo sapiens), Q14192 (parent)
chain: MTERFDCHHCNESLFGKKYILREESPYCVVCFETLFANTCEECGKPIGCDCKDLSYKDRHWHEACFHCSQCRNSLVDKPFAAKEDQLLCTDCYSNEYSSKCQECKKTIMPGTRKMEYKGSSWHETCFICHRCQQPIGTKSFIPKDNQNFCVPCYEKQHAMQCVQCKKPITTGGVTYREQPWHKECFVCTACRKQLSGQRFTARDDFAYCLNCFCDLYAKKCAGCTNPISGLGGTKYISFEERQWHNDCFNCKKCSLSLVGRGFLTERDDILCPDCGKDI
B3: Putative RNA-binding protein Luc7-like 2 (Homo sapiens), Q9Y383 (parent)
chain: MSAQAQMRAMLDQLMGTSRDGDTTRQRIKFSDDRVCKSHLLNCCPHDVLSGTRMDLGECLKVHDLALRADYEIASKEQDFFFELDAMDHLQSFIADCDRRTEVAKKRLAETQEEISAEVAAKAERVHELNEEIGKLLAKVEQLGAEGNVEESQKVMDEVEKARAKKREAEEVYRNSMPASSFQQQKLRVCEVCSAYLGLHDNDRRLADHFGGKLHLGFIEIREKLEELKRVVAEKQEKRNQERLKRREEREREEREKLRRSRSHSKNPKRSRSREHRRHRSRSMSRERKRRTRSKSREKRHRHRSRSSSRSRSRSHQRSRHSSRDRSRERSKRRSSKERFRDQDLASCDRDRSSRDRSPRDRDRKDKKRSYESANGRSEDRRSSEEREAGEI
B4: RUN and FYVE domain-containing protein 1 (Homo sapiens), Q96T51-2 (parent)
chain: MMEERANLMHMMKLSIKVLLQSALSLGRSLDADHAPLQQFFVVMEHCLKHGLKVKKSFIGQNKSFFGPLELVEKLCPEASDIATSVRNLPELKTAVGRGRAWLYLALMQKKLADYLKVLIDNKHLLSEFYEPEALMMEEEGMVIVGLLVGLNVLDANLCLKGEDLDSQVGVIDFSLYLKDVQDLDGGKEHERITDVLDQKNYVEELNRHLSCTVGDLQTKIDGLEKTNSKLQEELSAATDRICSLQEEQQQLREQNELIRERSEKSVEITKQDTKVELETYKQTRQGLDEMYSDVWKQLKEEKKVRLELEKELELQIGMKTEMEIAMKLLEKDTHEKQDTLVALRQQLEEVKAINLQMFHKAQNAESSLQQKNEAITSFEGKTNQVMSSMKQMEERLQHSERARQGAEERSHKLQQELGGRIGALQLQLSQLHEQCSSLEKELKSEKEQRQALQRELQHEKDTSSLLRMELQQVEGLKKELRELQDEKAELQKICEEQEQALQEMGLHLSQSKLKMEDIKEVNQALKGHAWLKDDEATHCRQCEKEFSISRRKHHCRNCGHIFCNTCSSNELALPSYPKPVRVCDSCHTLLLQRCSSTAS
partner: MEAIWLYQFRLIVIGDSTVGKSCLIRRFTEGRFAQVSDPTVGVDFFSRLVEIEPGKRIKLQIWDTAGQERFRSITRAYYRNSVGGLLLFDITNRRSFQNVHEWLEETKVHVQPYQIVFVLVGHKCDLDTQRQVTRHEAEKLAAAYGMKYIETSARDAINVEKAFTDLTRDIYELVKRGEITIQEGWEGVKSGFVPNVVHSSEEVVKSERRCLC
B5: Septin-12 (Homo sapiens), Q8IYM1 (parent)
chain: MDPLRRSPSPCLSSQPSSPSTPPCEMLGPVGIEAVLDQLKIKAMKMGFEFNIMVVGQSGLGKSTMVNTLFKSKVWKSNPPGLGVPTPQTLQLHSLTHVIEEKGVKLKLTVTDTPGFGDQINNDNCWDPILGYINEQYEQYLQEEILITRQRHIPDTRVHCCVYFVPPTGHCLRPLDIEFLQRLCRTVNVVPVIARADSLTMEEREAFRRRIQQNLRTHCIDVYPQMCFDEDINDKILNSKLRDRIPFAVVGADQEHLVNGRCVLGRKTKWGIIEVENMAHCEFPLLRDLLIRSHLQDLKDITHNIHYENYRVIRLNESHLLPRGPGWVNLAPASPGQLTTPRTFKVCRGAHDDSDDEF
partner: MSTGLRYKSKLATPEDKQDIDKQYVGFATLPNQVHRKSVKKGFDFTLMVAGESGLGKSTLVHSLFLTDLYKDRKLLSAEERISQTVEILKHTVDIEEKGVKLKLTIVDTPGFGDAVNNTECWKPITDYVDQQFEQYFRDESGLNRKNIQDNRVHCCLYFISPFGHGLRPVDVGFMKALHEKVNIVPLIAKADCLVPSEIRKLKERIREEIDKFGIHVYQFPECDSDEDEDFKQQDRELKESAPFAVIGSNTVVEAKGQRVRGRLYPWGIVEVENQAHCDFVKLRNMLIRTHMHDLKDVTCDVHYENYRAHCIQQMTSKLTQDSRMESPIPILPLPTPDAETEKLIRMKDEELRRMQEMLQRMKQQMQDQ

Variants of: B1
Conditions: with mtg8_human RUNX1T1, Q06455

Row | effect of a mutation on the interaction | Variant
1 | with no effect | R74G
2 | with no effect | A482V
3 | with no effect | N606H

Variants of: B2
Conditions: with gbg12_human GNG12, Q9UBI6
Sequence of gbg12_human GNG12, Q9UBI6 (Q9UBI6 whole entry): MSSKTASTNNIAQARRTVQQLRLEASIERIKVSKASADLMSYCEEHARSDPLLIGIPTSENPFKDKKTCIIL

Row | effect of a mutation on the interaction | Variant
4 | with no effect | R177Q

Variants of: B2
Conditions: with inca1_human INCA1, Q0VD86
Sequence of inca1_human INCA1, Q0VD86 (Q0VD86 whole entry): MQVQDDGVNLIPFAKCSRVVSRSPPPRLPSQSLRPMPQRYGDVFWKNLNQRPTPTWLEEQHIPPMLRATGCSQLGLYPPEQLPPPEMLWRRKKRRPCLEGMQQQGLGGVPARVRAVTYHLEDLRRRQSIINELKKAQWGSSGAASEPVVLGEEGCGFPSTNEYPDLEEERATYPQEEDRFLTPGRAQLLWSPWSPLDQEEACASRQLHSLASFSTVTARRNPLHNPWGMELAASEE

Row | effect of a mutation on the interaction | Variant
5 | with no effect | A37S
6 | with no effect | N95K

Variants of: B3
Conditions: with nfya_human NFYA

Row | effect of a mutation on the interaction | Variant
7 | with no effect | K368Q

Variants of: B3
Conditions: with srsf6_human SRSF6, Q13247
Sequence of srsf6_human SRSF6, Q13247 (Q13247 whole entry, looked up): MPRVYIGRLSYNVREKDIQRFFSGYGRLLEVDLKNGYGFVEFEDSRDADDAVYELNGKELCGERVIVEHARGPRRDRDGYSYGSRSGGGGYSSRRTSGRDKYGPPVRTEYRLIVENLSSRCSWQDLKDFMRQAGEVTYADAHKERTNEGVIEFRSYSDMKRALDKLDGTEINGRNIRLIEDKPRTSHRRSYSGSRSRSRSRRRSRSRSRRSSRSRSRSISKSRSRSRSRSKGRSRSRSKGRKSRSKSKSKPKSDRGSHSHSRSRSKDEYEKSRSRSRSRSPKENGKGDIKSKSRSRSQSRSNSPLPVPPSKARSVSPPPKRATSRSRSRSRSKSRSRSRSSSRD

Row | effect of a mutation on the interaction | Variant
8 | with no effect | K368Q

Variants of: B4
Conditions: with rb39b_human RAB39B

Row | effect of a mutation on the interaction | Variant
9 | with no effect | C159F

Variants of: B5
Conditions: with sept5_human SEPTIN5, Q99719

Row | effect of a mutation on the interaction | Variant
10 | with no effect | K73N
11 | disrupting interaction strength | R204Q
12 | with no effect | R311C
